Measured values taken from PMC3499583.
“And” between values parts separate entries of the source, which are not always exact repeats. Identical values can stand only once.

How the values were obtained:
[1] = biological target: purified monomeric Semaphorin-7A ectodomain (Cd4d3+4-His6) (human); test: SEC + other: amino acid analysis; peak fraction of the SEC of the equimolar mixture; amino acid composition compared with theoretical 1:1, 2:1 and 1:2 (Semaphorin-7A:MTRAP)
[2] = biological target: Human Semaphorin-7A ectodomain, natural variant Q457K, biotinylated bait (human); test: SPR; kinetic (dissociation model fitted to a family of binding curves); biotinylated Semaphorin-7A or its variants captured on a streptavidin-coated chip, serial dilutions of purified MTRAP injected at 100 µl/min; Biacore T100, 37°C, HBS-EP
[3] = biological target: Human Semaphorin-7A ectodomain, natural variant Q530P, biotinylated bait (human); test: as above
[4] = biological target: Human Semaphorin-7A ectodomain, natural variant R475T, biotinylated bait (human); test: as above
[5] = biological target: Human Semaphorin-7A ectodomain, natural variant R474L, biotinylated bait (human); test: as above
[6] = biological target: Human Semaphorin-7A ectodomain, natural variant E473V, biotinylated bait (human); test: as above
[7] = biological target: Human Semaphorin-7A ectodomain, natural variant R207Q, biotinylated bait (human); test: as above
[8] = biological target: Human Semaphorin-7A entire ectodomain, biotinylated bait (Cd4d3+4-biotin) (human); test: as above
[9] = biological target: Human Semaphorin-7A ectodomain, natural variant R460H, biotinylated bait (human); test: as above
[10] = biological target: Human Semaphorin-7A ectodomain, natural variant S115T, biotinylated bait (human); test: as above
[11] = biological target: Semaphorin-7A entire ectodomain, biotinylated bait (human); test: SPR; Biacore T100; biotinylated Semaphorin-7A ectodomain, PNGase F-treated form, single domains or variants captured on a streptavidin chip, purified monomeric MTRAP injected; reference biotinylated rat Cd4d3+4; 37°C, HBS-EP
[12] = biological target: Semaphorin-7A Sema domain, biotinylated bait (human) (UniProt O75326); test: as above
Chain of UniProt O75326 (O75326 53-490): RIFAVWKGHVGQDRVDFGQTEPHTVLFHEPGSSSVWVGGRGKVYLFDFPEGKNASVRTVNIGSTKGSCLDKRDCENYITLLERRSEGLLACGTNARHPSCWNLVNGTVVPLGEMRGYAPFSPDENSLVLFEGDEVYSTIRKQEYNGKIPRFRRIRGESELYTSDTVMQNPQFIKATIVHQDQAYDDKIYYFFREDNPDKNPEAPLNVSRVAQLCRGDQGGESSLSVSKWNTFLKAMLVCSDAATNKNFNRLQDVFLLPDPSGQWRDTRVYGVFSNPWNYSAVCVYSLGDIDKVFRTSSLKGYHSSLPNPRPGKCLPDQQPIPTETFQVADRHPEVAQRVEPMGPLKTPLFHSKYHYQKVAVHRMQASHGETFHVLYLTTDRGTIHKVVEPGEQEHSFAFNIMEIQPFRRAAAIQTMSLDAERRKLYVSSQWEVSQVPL

[13] = biological target: PNGase F-treated Semaphorin-7A, biotinylated bait (human); test: as above
[14] = biological target: purified monomeric Semaphorin-7A ectodomain (Cd4d3+4-His6) (human); test: SEC; Superdex 200 Tricorn 10/600 in HBS-EP; nickel-purified His-tagged proteins alone and mixed at equimolar concentrations; fractions on SDS-PAGE, Coomassie
[15] = biological target: MTRAP entire ectodomain, biotinylated bait (P. falciparum); test: SPR; Biacore T100; biotinylated MTRAP or TSR baits captured on a streptavidin chip, serial dilutions of purified Semaphorin-7A injected (20 µl/min for equilibrium); reference biotinylated rat Cd4d3+4; 37°C, HBS-EP
[16] = biological target: MTRAP TSR1+2 fragment, biotinylated bait (P. falciparum); test: as above
[17] = biological target: purified monomeric Semaphorin-7A ectodomain (Cd4d3+4-His6) (human); test: SEC-MALS; Superdex200 10/30 in 50 mM Tris.HCl pH 7.5, 150 mM NaCl, 0.4 ml/min; Dawn Heleos-II and Optilab-Rex
[18] = biological target: P. falciparum MTRAP TSR1+2 fragment, biotinylated bait (Cd4d3+4-biotin) (P. falciparum); test: SPR; equilibrium (steady state affinity model); biotinylated MTRAP or TSR1+2 captured on a streptavidin-coated chip, serial dilutions of purified Semaphorin-7A injected at 20 µl/min; Biacore T100, 37°C, HBS-EP; reference flow cell with biotinylated rat Cd4d3+4
[19] = biological target: P. falciparum MTRAP entire ectodomain, biotinylated bait (Cd4d3+4-biotin) (P. falciparum); test: as above

Substance: monomeric His-tagged MTRAP ectodomain lacking the Cd4d3+4-tag (domain or fragment)
- stoichiometry N [1]: 1

Substance: P. falciparum MTRAP entire ectodomain, monomeric His-tagged, purified (domain or fragment)
- koff [2]: 0.053 s⁻¹ and 0.058 s⁻¹ and 0.056 s⁻¹
- koff [3]: 0.05 s⁻¹ and 0.055 s⁻¹ and 0.053 s⁻¹
- koff [4]: 0.059 s⁻¹ and 0.053 s⁻¹ and 0.056 s⁻¹
- koff [5]: 0.046 s⁻¹ and 0.057 s⁻¹ and 0.052 s⁻¹
- koff [6]: 0.056 s⁻¹ and 0.054 s⁻¹ and 0.055 s⁻¹
- koff [7]: 0.054 s⁻¹ and 0.045 s⁻¹ and 0.05 s⁻¹
- koff [8]: 0.058 s⁻¹ and 0.054 s⁻¹ and 0.056 s⁻¹
- koff [9]: 0.049 s⁻¹ and 0.051 s⁻¹ and 0.05 s⁻¹
- koff [10]: 0.053 s⁻¹ and 0.047 s⁻¹ and 0.05 s⁻¹

Substance: purified monomeric MTRAP (His-tagged ectodomain, analyte in SPR) (domain or fragment)
- koff [11]: 0.061 s⁻¹
- Kd [12]: 830 nM
- koff [13]: 0.063 s⁻¹

Substance: purified monomeric Semaphorin-7A ectodomain (Cd4d3+4-His6) (domain or fragment)
- stoichiometry N [14]: 2
- Kd [15]: 1180 nM
- Kd [16]: 1960 nM
- stoichiometry N [17]: 2

Substance: Human Semaphorin-7A entire ectodomain, soluble monomeric His-tagged (Cd4d3+4-His6), purified (domain or fragment)
- Kd [18]: 1940 nM and 1930 nM and 2000 nM
- Kd [19]: 1070 nM and 850 nM and 1620 nM
